In patent US8835609B2, “Antigen binding sites to non-functional oligomeric P2X7 receptors and methods of use thereof” (Biosceptre International Limited, priority 2009, dated 2014):

How the values were obtained:
[1] = target: T1, red blood cells expressing function-capable P2X7 receptor (Mus musculus, UniProt Q9Z1M0); assay: Binding to red blood cells in tumour sections; type: in vivo; settings: adjacent red blood cells in Lewis Lung tumour section
T1 construct: from tissue; host or cells: red blood cells in formalin-fixed Lewis Lung tumour sections from antibody-treated mice
T1 sequence (Q9Z1M0 1-595): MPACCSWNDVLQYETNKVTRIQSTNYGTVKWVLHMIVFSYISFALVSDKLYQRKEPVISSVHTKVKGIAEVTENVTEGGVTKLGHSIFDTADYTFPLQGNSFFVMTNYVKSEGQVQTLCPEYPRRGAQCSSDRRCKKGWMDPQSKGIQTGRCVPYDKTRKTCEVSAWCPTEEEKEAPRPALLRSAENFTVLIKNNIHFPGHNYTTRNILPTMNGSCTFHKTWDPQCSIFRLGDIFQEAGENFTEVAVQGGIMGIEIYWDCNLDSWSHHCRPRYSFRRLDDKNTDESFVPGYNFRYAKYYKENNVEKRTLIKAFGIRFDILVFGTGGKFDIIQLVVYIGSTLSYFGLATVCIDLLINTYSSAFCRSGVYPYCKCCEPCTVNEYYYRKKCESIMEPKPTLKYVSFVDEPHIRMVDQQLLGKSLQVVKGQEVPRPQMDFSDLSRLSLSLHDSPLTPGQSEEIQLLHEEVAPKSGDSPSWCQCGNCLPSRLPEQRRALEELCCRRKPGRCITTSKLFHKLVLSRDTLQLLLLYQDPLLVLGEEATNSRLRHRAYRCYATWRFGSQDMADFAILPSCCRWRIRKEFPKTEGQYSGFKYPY
Method: Female BALB/c mice inoculated with the orthotopic syngeneic 4T1 murine mammary tumours in their third mammary fat pads or NOD/SCID female mice inoculated with the orthotopic human Hep3b xenograft tumour in their livers were treated intravenously with either a human domain antibody (2-2-1 hFc) directed at a monomeric target (epitope E200 on P2X7) or 2F6-hIgG1 directed at the compound epitope E200-300. All procedures approved by the Animal Ethics Committee at The University of Adelaide (M46-2008). Antibody penetration into the tumours was measured using Jackson Immunosearch goat anti-human antibody on tumour sections that were removed from the mice two days post antibody treatment. The tumours were fixed in 10% neutral buffered formalin for 48 hours, embedded in paraffin, sectioned to 5 um, deparaffinized, and stained for human antibody. The Biocare Mach 4 secondary detection system was used, comprising a specific goat antibody probe followed by a polymer with HRP then stained with DAB.

[2] = system: 4T1 mouse breast tumour cells; assay: 4T1 syngeneic xenograft model, lung metastases; type: in vivo; set-up: number of lung metastases, % of control / average metastasis volume, % of control / reduction of total metastasis volume / total metastasis volume, % of control: concentration or dose not given beside the values; settings: Day 14
Method: Reagents for culture of 4T1 mouse breast tumour cells were obtained from the following suppliers: RPMI 1640 cell culture medium, FCS, Glutamax, HBSS and penicillin-streptomycin from Invitrogen Australia (Mt Waverley, VIC, Australia); and Trypan Blue from Sigma-Aldrich (Castle Hill, NSW, Australia). Matrigel™ was obtained from BD Biosciences (North Ryde, NSW, Australia).
Tumour cells (Passage 2 from working stock) were cultured in RPMI 1640 cell culture medium, supplemented with 10% FCS, 1% Glutamax and 1% penicillin-streptomycin. The cells were harvested by trypsinisation, washed twice in HBSS and counted. The cells were then resuspended in HBSS:Matriger™ (1:1, v/v) to a final concentration of 5×10^7 cells/mL.
(§1) Dosing occurred every 3 days at antibody concentrations of 1 or 10 mg/kg i.v. or with PBS for treatment control or Sorafenib at 5 mL/kg daily as a positive control in the Lewis Lung model. Mice were randomised into equal groups of 10 mice, based on tumour volume on Day 0 of the studies.
(§2) Mice were anaesthetised for blood collection and euthanised by exsanguination via terminal cardiac bleed 48 hours post-final dose, on Days 11 or 14 post-initial treatment.
(§3) The lungs were excised from all mice. Lung surface metastases were counted and were categorised according to size: small (<1 mm), medium (≧1 mm and <3 mm) and large (≧3 mm). Excised lungs were preserved in 10% neutral buffered formalin.

Lewis Lung (LL) tumour = assay: Lewis Lung (LL) syngeneic xenograft model, lung metastases; type: in vivo, mouse; settings: Day 11
Method: as §1, §2, §3
The syngeneic Lewis Lung model was used with additional control groups. Besides the PBS control group of ten mice (Group 1), a positive control group using daily Sorafenib at 5 mL/kg was included (Group 5) along with antibody treatment groups consisting of sheep affinity purified E200-300 polyclonal antibody at 10 mg/kg (Group 2), 2F6-hIgG1 at 1 mg/kg (Group 3) and 2F6-hIgG1 at 10 mg/kg (Group 4).

B1: 2F6 hIgG1: mouse scFv from 2F6 grafted into a human format of type IgG1, expressed in HEK293 cells (antibody, V domains shown)
VH: DVKLVESGGGLVKLGGSLKLSCAASGFTFSSYYMSWVRQTPEKRLELVAAINSNGGSTYYPDTVKGRFTISRDNAKNTLYLQMSSLKSEDTAFYYCTRHYSSRFFDVWGAGTTVTVSS
VL: MADIVMTQSQKFMSTSVGDRVSVTCKASQNVGTNVAWYQQKPGQSPKALIYSASFRYSGVPDRFTGSGSGTDFTLTISNVQSEDLAEFFCQQYNSYPFTFGSGTRLEIK
With B1 the “labelling of red blood cells” value [1] was “entirely unlabelled”, the “number of lung metastases” value ([2]; BALBc mice, i.v. every 3 days) was 3.4±0.7 and the average metastasis volume [2] was 1.28 mm^3. The “average metastasis volume, % of control” value [2] was 22%, the “number of lung metastases, % of control” value [2] was 53% and the total metastasis volume [2] was 43 mm^3. The “total metastasis volume, % of control” value [2] was 11.8%, the “reduction of total metastasis volume” value ([2]; listed as 2F6-hIgG1) was 88% and the “reduction of total metastasis volume” value ([2]; listed as 2F6hIgG1) was 89%. The “Mean Lung Surface Mets” value (Lewis Lung (LL) tumour; antibody 1 mg/kg i.v. every 3 days) was 0.9, the “Mean Lung Surface Mets” value (Lewis Lung (LL) tumour; antibody 10 mg/kg i.v. every 3 days) was 0.2 and the “inhibition of lung metastases relative to PBS control” value (Lewis Lung (LL) tumour; antibody 10 mg/kg) was 96%.
